Experimental data: patent US20100104557A1

What was measured:
[1] = molecular target: His-tagged HM1.24 antigen, residues N49-A163 of the extracellular domain (human) (UniProt Q10589); assay: Biacore (SPR): His-tagged HM1.24 antigen coupled directly to the chip (NHS chemistry), antibody as analyte; separate kd and ka fitting
[2] = molecular target: His-tagged HM1.24 antigen, residues N49-A163 of the extracellular domain (human) (UniProt Q10589); assay: Biacore (SPR): antibody on a protein A chip, HM1.24 antigen as analyte; antibody post incubation (pH 9, 37 C, 4 days)
[3] = molecular target: His-tagged HM1.24 antigen, residues N49-A163 of the extracellular domain (human) (UniProt Q10589); assay: Biacore (SPR): antibody on a protein A chip, HM1.24 antigen as analyte; antibody untreated
[4] = molecular target: His-tagged HM1.24 antigen, residues N49-A163 of the extracellular domain (human) (UniProt Q10589); assay: Biacore (SPR): His-tagged HM1.24 antigen coupled directly to the chip (NHS chemistry), antibody as analyte; simultaneous (global Langmuir) fitting

His-tagged HM1.24 antigen, residues N49-A163 of the extracellular domain (human), sequence (Q10589 49-163): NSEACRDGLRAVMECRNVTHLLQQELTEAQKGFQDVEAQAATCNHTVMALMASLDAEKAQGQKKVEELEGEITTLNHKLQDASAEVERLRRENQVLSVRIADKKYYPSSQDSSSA

Kd [1]: 0.0732 nM
koff [1]: 7.02e-05 s⁻¹
kon [1]: 958000 M⁻¹ s⁻¹
koff [2]: 0.00257 s⁻¹
koff [3]: 0.00287 s⁻¹
Kd [4]: 0.0826 nM
koff [4]: 7.27e-05 s⁻¹
kon [4]: 879000 M⁻¹ s⁻¹
B1: Antibody comprising the HM1.24_H2.2 heavy chain variant and the HM1.24_L4 light chain (antibody, V domains shown)
VH: EVQLVESGGGLVKPGGSLRLSCAASGYTFTPYWMQWVRQAPGKGLEWMGSIFPGSGDTRYSQSFQGQVTISADKSISTAYMELSSLRSEDTAVYYCARGLRRGGYYFDYWGQGTLVTVSS
VL: DIVMTQSPLSLPVTLGQPASISCKASQDVNTAVAWYLQKPGKSPKLLIYSASNRYTGVPDRITGSGSGTDFTLKISRVEAEDVGVYYCQQHYSTPFTFGSGTKLEIKR
